Laboratory results published in publication PMC8837617 (2022).
No end group written: not given here. *: point of attachment. 5FAM = O=C1OC2(c3ccc(O)cc3Oc3cc(O)ccc32)c2ccc(C(=O)*)cc21

Target: MAPK ERK2 (human, UniProt P28482 1-360)
Experiment: FP

Chain of MAPK ERK2 (P28482 whole entry): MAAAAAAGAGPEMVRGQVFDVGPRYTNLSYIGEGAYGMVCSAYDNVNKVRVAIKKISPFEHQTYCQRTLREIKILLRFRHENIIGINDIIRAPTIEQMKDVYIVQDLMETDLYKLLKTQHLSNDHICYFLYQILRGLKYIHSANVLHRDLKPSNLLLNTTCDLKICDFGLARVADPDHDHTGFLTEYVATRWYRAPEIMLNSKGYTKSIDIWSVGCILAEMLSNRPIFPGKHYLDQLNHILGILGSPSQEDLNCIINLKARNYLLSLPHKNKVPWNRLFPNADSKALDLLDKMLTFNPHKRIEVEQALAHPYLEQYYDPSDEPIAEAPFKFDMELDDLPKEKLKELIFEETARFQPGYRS

Kd: 23.9 µM
Binder: 5FAM-RLQERRGSNVALMLDV [fluorescent reporter peptide fl-HePTP]
